According to the supplement of paper PMC9112550, “Optimization of the antimicrobial peptide Bac7 by deep mutational scanning” (BMC Biology, 2022):

system: Escherichia coli TOP10; experiment: shrunken log2 fold change of peptide-encoding DNA abundance (4.5 h post-induction vs induction); higher = less antimicrobial activity (less host growth inhibition); details: time post-induction: 4.5 h; library: site-saturation at positions 5, 18, 19, 20
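Also: peptides expressed intracellularly from a pBAD plasmid library in pooled LB shake-flask culture, induced with 0.3% L-arabinose, DNA abundance read by NGS, three biological replicates, DESeq2 with apeglm shrinkage.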

Sequence | shrunken log2 fold change
RRIRMRPPRLPRPRPRPFDIPRP | -0.126
RRIRPRPPRLPRPRPRPHGNPRP | -0.654
RRIRWRPPRLPRPRPRPQMWPRP | 0.369
RRIRHRPPRLPRPRPRPRIMPRP | -0.577
RRIRIRPPRLPRPRPRPGDSPRP | 0.0577
RRIRFRPPRLPRPRPRPWGFPRP | 0.0091
RRIRTRPPRLPRPRPRPYLHPRP | -0.367
RRIRSRPPRLPRPRPRPMDFPRP | -0.215
RRIRQRPPRLPRPRPRPSKGPRP | 0.0585
RRIRGRPPRLPRPRPRPRLTPRP | 0.948
RRIRQRPPRLPRPRPRPILRPRP | 0.034
RRIRERPPRLPRPRPRPSDAPRP | -0.0474
RRIRQRPPRLPRPRPRPNCTPRP | -0.448
RRIRQRPPRLPRPRPRPYLCPRP | -0.00822
RRIRFRPPRLPRPRPRPDTYPRP | -0.221
RRIRARPPRLPRPRPRPGIDPRP | 0.652
RRIRARPPRLPRPRPRPLRNPRP | 0.516
RRIRCRPPRLPRPRPRPRFHPRP | -0.393
RRIRARPPRLPRPRPRPAMWPRP | 0.317
RRIRMRPPRLPRPRPRPEHLPRP | 0.417
RRIRNRPPRLPRPRPRPCLTPRP | 0.0253
RRIRWRPPRLPRPRPRPDFSPRP | -0.0269
RRIRDRPPRLPRPRPRPTSDPRP | 0.347
RRIRTRPPRLPRPRPRPNSAPRP | -0.181
RRIRFRPPRLPRPRPRPKTRPRP | 0.277

Sequence | shrunken log2 fold change
RRIRERPPRLPRPRPRPLPAPRP | 0.065
RRIRHRPPRLPRPRPRPHMMPRP | -0.321
RRIRLRPPRLPRPRPRPVLFPRP | -0.0101
RRIRFRPPRLPRPRPRPKYQPRP | -0.534
RRIRARPPRLPRPRPRPVENPRP | 0.25
RRIRRRPPRLPRPRPRPCSIPRP | -0.0224
RRIRCRPPRLPRPRPRPHLSPRP | -0.147
RRIRIRPPRLPRPRPRPTQFPRP | 0.000325
RRIRVRPPRLPRPRPRPHPEPRP | -0.155
RRIRVRPPRLPRPRPRPRLVPRP | 1.56
RRIRYRPPRLPRPRPRPAHGPRP | 0.1
RRIRVRPPRLPRPRPRPNVRPRP | -0.0431
RRIRCRPPRLPRPRPRPCPKPRP | -0.0654
RRIRIRPPRLPRPRPRPNRYPRP | -0.295
RRIRDRPPRLPRPRPRPYKVPRP | -0.687
RRIRHRPPRLPRPRPRPHFSPRP | 0.0854
RRIRARPPRLPRPRPRPRLTPRP | 1.58
RRIRSRPPRLPRPRPRPEQWPRP | 0.172
RRIRPRPPRLPRPRPRPFRWPRP | -0.0528
RRIRYRPPRLPRPRPRPTPNPRP | 0.507
RRIRPRPPRLPRPRPRPTQVPRP | 0.124
RRIRQRPPRLPRPRPRPRQLPRP | 0.0166
RRIRPRPPRLPRPRPRPKHMPRP | -0.0288
RRIRMRPPRLPRPRPRPKMVPRP | 2.27
RRIRNRPPRLPRPRPRPYHHPRP | -0.207

Sequence | shrunken log2 fold change
RRIRPRPPRLPRPRPRPCFSPRP | -0.304
RRIRARPPRLPRPRPRPMKQPRP | 0.0535
RRIRNRPPRLPRPRPRPWAPPRP | -0.23
RRIRVRPPRLPRPRPRPTVEPRP | 0.195
RRIRSRPPRLPRPRPRPVDTPRP | -0.103
RRIRKRPPRLPRPRPRPKRPPRP | 0.552
RRIRFRPPRLPRPRPRPVTLPRP | 0.347
RRIRRRPPRLPRPRPRPHHTPRP | -0.408
RRIRNRPPRLPRPRPRPHYDPRP | -0.775
RRIRHRPPRLPRPRPRPVIPPRP | -0.0562
RRIRCRPPRLPRPRPRPVIMPRP | -0.604
RRIRLRPPRLPRPRPRPHFVPRP | -0.0621
RRIRYRPPRLPRPRPRPITHPRP | -0.211
RRIRPRPPRLPRPRPRPMMCPRP | -0.147
RRIRVRPPRLPRPRPRPPFWPRP | 0.46
RRIRLRPPRLPRPRPRPWTHPRP | -0.207
RRIRLRPPRLPRPRPRPEDYPRP | -0.0202
RRIRKRPPRLPRPRPRPPKWPRP | 0.0966
RRIRIRPPRLPRPRPRPKILPRP | -0.0568
RRIRSRPPRLPRPRPRPIYEPRP | -0.134
RRIRNRPPRLPRPRPRPAPNPRP | -0.0796
RRIRPRPPRLPRPRPRPTEYPRP | -0.264
RRIRKRPPRLPRPRPRPTNDPRP | 0.191
RRIRVRPPRLPRPRPRPQLPPRP | -0.0715
RRIRTRPPRLPRPRPRPVTAPRP | -0.0612

Sequence | shrunken log2 fold change
RRIRERPPRLPRPRPRPCSNPRP | 0.0168
RRIRQRPPRLPRPRPRPKMVPRP | -0.0201
RRIRDRPPRLPRPRPRPQAYPRP | 0.18
RRIRWRPPRLPRPRPRPPIWPRP | 0.628
RRIRWRPPRLPRPRPRPSRDPRP | 0.479
RRIRRRPPRLPRPRPRPMEEPRP | 0.0408
RRIRGRPPRLPRPRPRPQRAPRP | 0.466
RRIRDRPPRLPRPRPRPYRKPRP | -0.0111
RRIRTRPPRLPRPRPRPYRWPRP | -0.281
RRIRYRPPRLPRPRPRPNPKPRP | -0.0294
RRIRMRPPRLPRPRPRPGAVPRP | 0.873
RRIRCRPPRLPRPRPRPGMRPRP | 0.532
RRIRGRPPRLPRPRPRPVLCPRP | 0.635
RRIRKRPPRLPRPRPRPTSDPRP | 0.492
RRIRCRPPRLPRPRPRPHQLPRP | -0.465
RRIRARPPRLPRPRPRPPMCPRP | 0.00915
RRIRKRPPRLPRPRPRPGDCPRP | 0.106
RRIRPRPPRLPRPRPRPAQCPRP | 0.148
RRIRCRPPRLPRPRPRPGRMPRP | 0.141
RRIRHRPPRLPRPRPRPANAPRP | -0.0554
RRIRARPPRLPRPRPRPFCTPRP | 0.0721
RRIRGRPPRLPRPRPRPECYPRP | 0.25
RRIRERPPRLPRPRPRPNSCPRP | -0.128
RRIRPRPPRLPRPRPRPPQVPRP | 0.368
RRIRNRPPRLPRPRPRPRCPPRP | -0.0521

Sequence | shrunken log2 fold change
RRIRRRPPRLPRPRPRPRSWPRP | 0.648
RRIRARPPRLPRPRPRPTNTPRP | 0.0887
RRIRYRPPRLPRPRPRPEISPRP | -0.00407
RRIRDRPPRLPRPRPRPMRFPRP | 0.21
RRIRARPPRLPRPRPRPIHHPRP | -0.302
RRIRNRPPRLPRPRPRPAGPPRP | -0.0019
RRIRQRPPRLPRPRPRPSNRPRP | -0.158
RRIRARPPRLPRPRPRPLWGPRP | 0.308
RRIRKRPPRLPRPRPRPRGKPRP | 0.126
RRIRARPPRLPRPRPRPSQCPRP | -0.121
RRIRWRPPRLPRPRPRPSAWPRP | 0.319
RRIRKRPPRLPRPRPRPQTNPRP | 0.271
RRIRPRPPRLPRPRPRPGVTPRP | -0.227
RRIRHRPPRLPRPRPRPPSYPRP | -0.266
RRIRSRPPRLPRPRPRPIYVPRP | -0.612
RRIRMRPPRLPRPRPRPDDQPRP | -0.0167
RRIRPRPPRLPRPRPRPSCIPRP | -0.749
RRIRHRPPRLPRPRPRPVNQPRP | -0.0313
RRIRVRPPRLPRPRPRPWVWPRP | 0.292
RRIRGRPPRLPRPRPRPCFMPRP | 0.0852
RRIRPRPPRLPRPRPRPIKGPRP | 0.0468
RRIRMRPPRLPRPRPRPSPGPRP | 0.564
RRIRTRPPRLPRPRPRPIQSPRP | -0.0351
RRIRPRPPRLPRPRPRPMPYPRP | -0.41
RRIRKRPPRLPRPRPRPLKEPRP | 0.0921

Sequence | shrunken log2 fold change
RRIRARPPRLPRPRPRPPKGPRP | 0.654
RRIRGRPPRLPRPRPRPTYRPRP | 0.138
RRIRFRPPRLPRPRPRPMIWPRP | -0.101
RRIRVRPPRLPRPRPRPRLTPRP | 0.169
RRIRARPPRLPRPRPRPLHPPRP | 0.256
RRIRSRPPRLPRPRPRPQMCPRP | -0.724
RRIRGRPPRLPRPRPRPLVQPRP | 0.802
RRIRDRPPRLPRPRPRPYYHPRP | -0.972
RRIRARPPRLPRPRPRPKLPPRP | 0.184
RRIRNRPPRLPRPRPRPVADPRP | 0.217
RRIRRRPPRLPRPRPRPRQCPRP | 0.596
RRIRARPPRLPRPRPRPIGSPRP | -0.0508
RRIRMRPPRLPRPRPRPCHNPRP | -0.355
RRIRFRPPRLPRPRPRPMGTPRP | -0.0834
RRIRRRPPRLPRPRPRPMVMPRP | 0.158
RRIRWRPPRLPRPRPRPKEKPRP | 0.0316
RRIRQRPPRLPRPRPRPPNSPRP | -0.0968
RRIRQRPPRLPRPRPRPVYMPRP | -0.269
RRIRIRPPRLPRPRPRPKEAPRP | 0.0518
RRIRGRPPRLPRPRPRPNIWPRP | 0.373
RRIRQRPPRLPRPRPRPLKQPRP | -0.151
RRIRNRPPRLPRPRPRPLNNPRP | -0.478
RRIRNRPPRLPRPRPRPHWSPRP | -0.285
RRIRWRPPRLPRPRPRPCIDPRP | -0.0447
RRIRYRPPRLPRPRPRPVWDPRP | -0.0448
